The target of experiment [1] is bait control vector (empty plasmid) (UniProt P04386 1-147). Nature of the experiment: yeast two-hybrid, growth on -LWH medium and X-gal overlay.
The target of experiment [2] is T1, third intracellular loop of the 5-HT1A receptor (amino acids 218-345), bait construct (rat, UniProt P04386 1-147; P19327 218-345).
T1 construct: Yeast two-hybrid bait in the pAS2-derived vector
Described as above.

The target of experiment [3] is T2, third intracellular loop of the 5-HT6 receptor (amino acids 209-265), bait construct (rat, UniProt P04386 1-147; P31388 209-265).
T2 construct: Yeast two-hybrid bait in the pAS2-derived vector
The description is as above.

The target in experiment [4] is T3, third intracellular loop of the rat 5-HT1B receptor (amino acids 226-311), GAL4 DNA-binding domain fusion … (rat, UniProt P04386 1-147; P28564 226-311).
T3 construct: Yeast two-hybrid bait in a pAS2-derived vector; also called 5-HT1B receptor-bait; 5-HT1B receptors
Nature of the experiment: yeast two-hybrid, co-transformation of p11 prey and bait, -LWH medium and X-gal overlay.

This is an account of results in US8470548 (INTRA CELLULAR THERAPIES, dated 2013).

B1: p11 (rat; prey clone from the pACT2 rat brain cDNA library) (other, UniProt P05943 1-95, looked up)
chain: MPSQMEHAMETMMLTFHRFAGEKNYLTKEDLRVLMEREFPGFLENQKDPLAVDKIMKDLDQCRDGKVGFQSFLSLVAGLIIACNDYFVVHMKQKK
notes: Yeast two-hybrid prey; identified by BLAST search of the prey inserts; also called p11 prey; annexin-II light chain; not shown: fusion partner encoded by the pACT2 prey vector
B1: the binding result in experiment [1] is on record as “no binding”; in experiment [2], “no binding”; in experiment [3] it was “no binding”; in experiment [4] it was “binds”.
